{"source": "patent US6586216B2", "about": "(Purdue Research Foundation, priority 1997, dated 2003)", "key": {"[1]": {"target": "T1, wild type B. subtilis glutamine PRPP amidotransferase (Bacillus subtilis, UniProt P00497)", "T1 construct": "Enzymes of the B. subtilis class are synthesized with an NH2 terminal propeptide and an Fe—S center; made in house; host or cells: E. coli strain TX158 (purF) with plasmid pGZ1", "T1 sequence (P00497 12-476)": "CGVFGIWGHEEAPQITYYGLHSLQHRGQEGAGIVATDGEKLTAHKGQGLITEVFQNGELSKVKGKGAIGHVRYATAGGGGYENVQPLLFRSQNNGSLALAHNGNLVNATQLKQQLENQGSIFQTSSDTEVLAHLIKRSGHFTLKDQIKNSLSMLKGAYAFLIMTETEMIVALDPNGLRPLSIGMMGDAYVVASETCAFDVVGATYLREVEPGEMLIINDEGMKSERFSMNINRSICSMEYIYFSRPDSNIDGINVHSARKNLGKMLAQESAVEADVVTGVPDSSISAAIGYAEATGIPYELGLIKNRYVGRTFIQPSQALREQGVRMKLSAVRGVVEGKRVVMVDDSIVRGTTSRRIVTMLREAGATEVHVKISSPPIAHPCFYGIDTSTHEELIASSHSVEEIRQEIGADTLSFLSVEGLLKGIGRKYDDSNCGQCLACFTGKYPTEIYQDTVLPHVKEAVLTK", "test": "Inhibition of enzyme activity by nucleotides (glutamate formation assay), wild type", "type": "biochemical", "details": "read-out: Km PRPP; wild type enzyme; data not shown", "experimental": "Enzyme activity was assayed by measuring the initial rate of formation of the product glutamate. […] Incubation was at 37° C. for 6 min. […] Reactions were quenched in a boiling water bath for 2 min, and glutamate was determined by the glutamate dehydrogenase method.\nInhibition by nucleotides was determined by the standard assay to which varied concentrations of nucleotide were added. Synergistic inhibition was determined by varying the concentration of one nucleotide in the presence of a fixed concentration of a second nucleotide. Relative activity (see FIG. 1) refers to the enzyme activity at a given concentration of the varied nucleotide relative to that in the absence of the varied nucleotide. I0.5 values were calculated from plots of relative activity versus varied nucleotide concentration."}, "[2]": {"system": "O=P(O)(O)OC[C@H]1OC(OP(=O)(O)OP(=O)(O)O)[C@H](O)[C@@H]1O", "test": "purified protein, by the assay type", "details": "other: S347A enzyme; data not shown; pH 8.0; 37.0 °C"}, "[3]": {"test": "Specific activity of purified enzyme", "type": "biochemical, Bacillus subtilis", "details": "typical value", "experimental": "For enzyme purification, all buffers were sparged with nitrogen gas prior to use in order to minimize oxidation of the enzyme's Fe-S cluster. All steps were carried out at 4° C. Cells were resuspended in 4 mL/gram of buffer A [50 mM Tris-HCl (pH 8.0), 10 mM MgCl2, 0.1 mM EDTA, 5 mM DTT, and 2 mM AMP] containing 1 mM PMSF, and were disrupted by two passes through a French Press. The cell extract was obtained by centrifugation for 1 h at 27,000 g. Protamine sulfate (5 mg per gram of cells) was added to the extract to precipitate DNA. After centrifugation at 27,000 g for 30 min, the supernatant was applied to a 1.9×20 cm column of DEAE-Sepharose equilibrated with buffer A. The column was washed with 300 mL of buffer A and 300 mL of buffer A plus 0.1 M KCl and eluted with a linear salt gradient of 600 mL from 0.1 to 1.0 M KCl in buffer A. Brown-colored fractions containing the enzyme were precipitated by addition of ammonium sulfate to 40% saturation. After centrifugation, enzyme in the brown pellet was recovered by extraction twice with 30% saturated ammonium sulfate. […]\nEnzyme activity was assayed by measuring the initial rate of formation of the product glutamate. […] Reactions were quenched in a boiling water bath for 2 min, and glutamate was determined by the glutamate dehydrogenase method. […]"}}}
{"molecule": "O=P(O)(O)OC[C@H]1OC(OP(=O)(O)OP(=O)(O)O)[C@H](O)[C@@H]1O", "note": "(stereo partly drawn) [PRPP, phosphoribosylpyrophosphate]", "values": [{"measurement": "Km", "setting": "[1]", "value": "75 to 81", "unit": "µM"}]}
{"molecule": "glutamine PRPP amidotransferase S347A mutant enzyme (Bacillus subtilis subsp. subtilis str. 168; S358A)", "values": [{"measurement": "Km", "setting": "[2]", "value": 182, "unit": "µM"}]}
{"molecule": "wild type: wild type B. subtilis glutamine PRPP amidotransferase produced from plasmid pGZ1 (protein, UniProt P00497 12-476, looked up) Amidophosphoribosyltransferase: CGVFGIWGHEEAPQITYYGLHSLQHRGQEGAGIVATDGEKLTAHKGQGLITEVFQNGELSKVKGKGAIGHVRYATAGGGGYENVQPLLFRSQNNGSLALAHNGNLVNATQLKQQLENQGSIFQTSSDTEVLAHLIKRSGHFTLKDQIKNSLSMLKGAYAFLIMTETEMIVALDPNGLRPLSIGMMGDAYVVASETCAFDVVGATYLREVEPGEMLIINDEGMKSERFSMNINRSICSMEYIYFSRPDSNIDGINVHSARKNLGKMLAQESAVEADVVTGVPDSSISAAIGYAEATGIPYELGLIKNRYVGRTFIQPSQALREQGVRMKLSAVRGVVEGKRVVMVDDSIVRGTTSRRIVTMLREAGATEVHVKISSPPIAHPCFYGIDTSTHEELIASSHSVEEIRQEIGADTLSFLSVEGLLKGIGRKYDDSNCGQCLACFTGKYPTEIYQDTVLPHVKEAVLTK", "values": [{"measurement": "Enzyme specific activity", "setting": "[3]", "value": 25, "unit": "nmol/min/mg"}]}
